In patent US20220380471A1:
Positions count from the first letter of the chain named.

What was measured:
[1] = target: B7H3 R&D; assay: ELISA; row B7H3 R&D; well 2 of 3
[2] = target: monkey B7H3-His (monkey); assay: ELISA; row Monkey; well 3 of 3
[3] = target: T1, rat B7H3-His (rat) (UniProt Q7TPB4); assay: ELISA; row Rat; well 3 of 3
T1 sequence (looked up): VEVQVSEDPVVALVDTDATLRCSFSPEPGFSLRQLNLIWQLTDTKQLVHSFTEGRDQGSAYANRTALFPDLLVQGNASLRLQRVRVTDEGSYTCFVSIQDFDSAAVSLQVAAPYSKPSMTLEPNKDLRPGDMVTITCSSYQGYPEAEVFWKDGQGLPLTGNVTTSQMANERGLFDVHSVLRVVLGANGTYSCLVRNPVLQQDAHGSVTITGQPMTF

[4] = target: monkey B7H3-His (monkey); assay: ELISA; row Monkey; well 1 of 3
[5] = target: T2, mouse B7H3-His (mouse) (UniProt Q8VE98); assay: ELISA; row Mouse-2 (mB7H3); well 1 of 3
T2 sequence (looked up): T1 sequence (looked up) with R33A, A62S, D131N, L156V, M214L

[6] = target: PD-L1; assay: ELISA; row PDL1-Fc; well 3 of 3
PD-L1, sequence (Q9NZQ7 19-238): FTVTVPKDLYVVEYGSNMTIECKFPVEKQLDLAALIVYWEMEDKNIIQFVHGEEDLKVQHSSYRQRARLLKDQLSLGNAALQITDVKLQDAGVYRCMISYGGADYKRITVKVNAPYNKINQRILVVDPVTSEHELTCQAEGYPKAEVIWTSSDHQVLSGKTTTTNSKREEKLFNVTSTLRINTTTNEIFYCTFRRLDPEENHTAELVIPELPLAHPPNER

[7] = target: recombinant human B7H3-Fc protein (human) (UniProt Q5ZPR3); assay: ELISA; row B7H3-Fc; well 1 of 3
recombinant human B7H3-Fc protein (human), sequence (Q5ZPR3 29-466 limits assumed): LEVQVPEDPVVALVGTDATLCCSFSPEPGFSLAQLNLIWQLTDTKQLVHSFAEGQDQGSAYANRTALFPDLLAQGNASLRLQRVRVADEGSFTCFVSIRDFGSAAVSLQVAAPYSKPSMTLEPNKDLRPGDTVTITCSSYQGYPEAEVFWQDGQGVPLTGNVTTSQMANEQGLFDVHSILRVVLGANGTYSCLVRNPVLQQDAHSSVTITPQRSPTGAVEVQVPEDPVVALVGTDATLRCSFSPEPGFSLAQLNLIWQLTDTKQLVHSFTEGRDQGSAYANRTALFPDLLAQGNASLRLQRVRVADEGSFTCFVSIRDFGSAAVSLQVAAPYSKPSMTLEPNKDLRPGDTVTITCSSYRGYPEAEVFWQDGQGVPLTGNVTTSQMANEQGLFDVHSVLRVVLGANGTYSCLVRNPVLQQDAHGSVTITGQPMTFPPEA

[8] = target: human B7H3 (human) (UniProt Q5ZPR3); assay: ELISA; row Human; well 3 of 3
human B7H3 (human), sequence (Q5ZPR3 29-466 limits assumed): as above

[9] = target: monkey B7H3-His (monkey); assay: ELISA; row Monkey; well 2 of 3
[10] = target: B7H3 R&D; assay: ELISA; row B7H3 R&D; well 1 of 3
[11] = target: T2, mouse B7H3-His (mouse); assay: ELISA; row Mouse-2 (mB7H3); well 3 of 3
[12] = target: hB7H3-His (human) (UniProt Q5ZPR3); assay: ELISA; row B7H3-his; well 3 of 3
hB7H3-His (human), sequence (Q5ZPR3 29-461 limits assumed): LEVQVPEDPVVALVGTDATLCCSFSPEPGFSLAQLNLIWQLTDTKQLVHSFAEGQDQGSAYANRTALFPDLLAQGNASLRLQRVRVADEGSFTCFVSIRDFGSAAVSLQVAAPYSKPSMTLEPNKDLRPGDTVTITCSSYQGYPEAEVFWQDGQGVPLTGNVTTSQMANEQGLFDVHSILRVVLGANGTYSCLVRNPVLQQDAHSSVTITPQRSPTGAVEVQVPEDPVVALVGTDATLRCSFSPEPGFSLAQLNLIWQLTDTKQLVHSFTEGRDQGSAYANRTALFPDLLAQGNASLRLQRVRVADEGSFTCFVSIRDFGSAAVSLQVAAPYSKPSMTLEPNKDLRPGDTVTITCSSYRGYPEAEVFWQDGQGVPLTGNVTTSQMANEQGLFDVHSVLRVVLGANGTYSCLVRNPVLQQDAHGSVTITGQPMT

[13] = target: T2, mouse B7H3-His (mouse); assay: ELISA; row Mouse-1 (msB7H3); well 2 of 3
[14] = target: PD-L1; assay: ELISA; row PDL1-Fc; well 1 of 3
[15] = target: T2, mouse B7H3-His (mouse); assay: ELISA; row Mouse-1 (msB7H3); well 3 of 3
[16] = target: T1, rat B7H3-His (rat); assay: ELISA; row Rat; well 2 of 3
[17] = target: human B7H3 (human) (UniProt Q5ZPR3); assay: ELISA; row Human; well 1 of 3
[18] = target: B7H3 R&D; assay: ELISA; row B7H3 R&D; well 3 of 3
[19] = target: HN3-Fc; assay: ELISA; row HN3-Fc; well 1 of 3
[20] = target: Irrelevant antigen; assay: ELISA; row Irrelevant antigen; well 3 of 3
[21] = target: Irrelevant antigen; assay: ELISA; row Irrelevant antigen; well 1 of 3
[22] = target: hB7H3-His (human) (UniProt Q5ZPR3); assay: ELISA; row B7H3-his; well 2 of 3
[23] = target: T1, rat B7H3-His (rat); assay: ELISA; row Rat; well 1 of 3
[24] = target: recombinant human B7H3-Fc protein (human) (UniProt Q5ZPR3); assay: ELISA; row B7H3-Fc; well 2 of 3
[25] = target: recombinant human B7H3-Fc protein (human) (UniProt Q5ZPR3); assay: ELISA; row B7H3-Fc; well 3 of 3
[26] = target: HN3-Fc; assay: ELISA; row HN3-Fc; well 3 of 3
[27] = target: human B7H3 (human) (UniProt Q5ZPR3); assay: ELISA; row Human; well 2 of 3
[28] = target: HN3-Fc; assay: ELISA; row HN3-Fc; well 2 of 3
[29] = target: Irrelevant antigen; assay: ELISA; row Irrelevant antigen; well 2 of 3
[30] = target: hB7H3-His (human) (UniProt Q5ZPR3); assay: ELISA; row B7H3-his; well 1 of 3
[31] = target: T2, mouse B7H3-His (mouse); assay: ELISA; row Mouse-1 (msB7H3); well 1 of 3
[32] = target: PD-L1; assay: ELISA; row PDL1-Fc; well 2 of 3
[33] = target: T2, mouse B7H3-His (mouse); assay: ELISA; row Mouse-2 (mB7H3); well 2 of 3

Question: Which ELISA reading (name not given) [1] does the source give for “commercial anti-human B7H3 hybridoma antibody 376.96” here?
Answer: 0.993

Question: And the ELISA reading (name not given) [2]?
Answer: 1.65

Question: And the ELISA reading (name not given) [3]?
Answer: 1.06

Question: What about the ELISA reading (name not given) [4] of the same substance?
Answer: 1.59

Question: And the ELISA reading (name not given) [5]?
Answer: 0.157

Question: What about the ELISA reading (name not given) [6] of the same substance?
Answer: 0.0749

Question: What about the ELISA reading (name not given) [7] of the same substance?
Answer: 1.61

Question: What about the ELISA reading (name not given) [8] of the same substance?
Answer: 1.44

Question: What about the ELISA reading (name not given) [9] of the same substance?
Answer: 1.59

Question: What about the ELISA reading (name not given) [10] of the same substance?
Answer: 0.991

Question: What about the ELISA reading (name not given) [11] of the same substance?
Answer: 0.184

Question: And the ELISA reading (name not given) [12]?
Answer: 0.813

Question: And the ELISA reading (name not given) [13]?
Answer: 0.156

Question: And the ELISA reading (name not given) [14]?
Answer: 0.0652

Question: And the ELISA reading (name not given) [15]?
Answer: 0.133

Question: What about the ELISA reading (name not given) [16] of the same substance?
Answer: 1.01

Question: What about the ELISA reading (name not given) [17] of the same substance?
Answer: 1.48

Question: What about the ELISA reading (name not given) [18] of the same substance?
Answer: 1.07

Question: What about the ELISA reading (name not given) [19] of the same substance?
Answer: 0.0545

Question: What about the ELISA reading (name not given) [20] of the same substance?
Answer: 0.0624

Question: What about the ELISA reading (name not given) [21] of the same substance?
Answer: 0.0531

Question: And the ELISA reading (name not given) [22]?
Answer: 0.812

Question: And the ELISA reading (name not given) [23]?
Answer: 0.981

Question: What about the ELISA reading (name not given) [24] of the same substance?
Answer: 1.59

Question: And the ELISA reading (name not given) [25]?
Answer: 1.59

Question: And the ELISA reading (name not given) [26]?
Answer: 0.0521

Question: And the ELISA reading (name not given) [27]?
Answer: 1.57

Question: And the ELISA reading (name not given) [28]?
Answer: 0.0541

Question: And the ELISA reading (name not given) [29]?
Answer: 0.0634

Question: And the ELISA reading (name not given) [30]?
Answer: 0.811

Question: What about the ELISA reading (name not given) [31] of the same substance?
Answer: 0.14

Question: What about the ELISA reading (name not given) [32] of the same substance?
Answer: 0.0812

Question: What about the ELISA reading (name not given) [33] of the same substance?
Answer: 0.145
